# Reference: patent publication US20150225459A1 (ARCH CANCER THERAPEUTICS, published 2015)
# Ends that are not written are not given here.
# T1: LSALT phage (T7 phage displaying the LSALT peptide LSALTPSPSWLKYKAL) (also: displayed on T7 phage, fused to the coat protein)
# T1 construct: The peptide is not naturally occurring; it is the out-of-frame product of Ube2n; also called Ube2n (LSALT) phage; LSALT-bacteriophage
# T1 peptide: LSALTPSPSWLKYKAL
# Molecular target: T1, LSALT phage (T7 phage displaying the …)
# Assay: biopanning of a combinatorial M13 phage library against LSALT phage immobilized on nitrocellulose
# From the text: When the LSALT phage was immobilized on nitrocellulose and biopanned against with a combinatorial M13 phage library, the following peptides were isolated as peptides that bind specifically with the LSALT. These peptides provide potential targets for action of LSALT peptides, variants and modifications thereof.
row,binding result,Binder
1,binds,DNTRVDT (also called putative target of LSALT) [DNTRVDT (SEQ ID NO: 9)]
2,binds,EQFTNLLDMYTA (also called putative target of LSALT) [EQFTNLLDMYTA (SEQ ID NO: 3)]
3,binds,HLPSIIPTMPYR (also called putative target of LSALT) [HLPSIIPTMPYR (SEQ ID NO: 2)]
4,binds,TNITESQQLNWR (also called putative target of LSALT) [TNITESQQLNWR (SEQ ID NO: 7)]
5,binds,MNVTPRQ (also called putative target of LSALT) [MNVTPRQ (SEQ ID NO: 11)]
6,binds,GLHNKTH (also called putative target of LSALT) [GLHNKTH (SEQ ID NO: 14)]
7,binds,HATGTHGLSLSH (also called putative target of LSALT) [HATGTHGLSLSH (SEQ ID NO: 6)]
8,binds,PTLPWKK (also called putative target of LSALT) [PTLPWKK (SEQ ID NO: 10)]

# Continued, binder first:
row,Binder,binding result
1,LGPAHLY (also called putative target of LSALT) [LGPAHLY (SEQ ID NO: 13)],binds
2,EQFTNLLDMTYA (also called putative target of LSALT) [EQFTNLLDMTYA (SEQ ID NO: 5)],binds
3,TTEHPRK (also called putative target of LSALT) [TTEHPRK (SEQ ID NO: 12)],binds
4,FEQKKGT (also called putative target of LSALT) [FEQKKGT (SEQ ID NO: 8)],binds
5,NERNSWH (also called putative target of LSALT) [NERNSWH (SEQ ID NO: 16)],binds
6,IPPSYSATLPALR (also called putative target of LSALT) [IPPSYSATLPALR (SEQ ID NO: 4)],binds
7,LNTQTGK (also called putative target of LSALT) [LNTQTGK (SEQ ID NO: 15)],binds
